Legend:
[1] = molecular target: circularly permuted AaLS with a Strep II tag in place of the His-tag region (cpAaLS(Strep)) (Aquifex aeolicus)
[2] = molecular target: circularly permuted AaLS with a His-tag in the linker connecting native termini (cpAaLS(His)) (Aquifex aeolicus); experiment: absorbance ratio at 280/475 nm
[3] = molecular target: wildtype lumazine synthase from Aquifex aeolicus (AaLS-wt) (Aquifex aeolicus) (UniProt O66529); experiment: absorbance ratio at 280/475 nm

Q: Which stoichiometry N [1] does the source give for “circularly permuted AaLS with a Strep II tag in place of the His-tag region (cpAaLS(Strep))” here?
A: The stoichiometry N was 5.

Q: Which results are given for “cpAaLS-GFP-SsrA (GFP-SsrA fused to the C-terminus of cpAaLS)”?
A: GFP molecules per pentamer (GFP molecules per pentamer) [2]: 0.14; GFP molecules per pentamer (GFP molecules per pentamer) [3]: 0.11

From publication doi:10.1101/2025.02.04.636450
